Test results as given in the domain aggregation screens of Martell et al. (2025).

Experiment: soluble fraction after stress (log2 fold change); higher = more stays soluble; pooled small domains, quantitative proteomics
Details: stress: pH 4
Summary of the method: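 Aggregation propensity is estimated from the fold change in each domain's soluble amount after acid stress. Pooled small-domain libraries were stressed at pH 4, and higher log2 values mean more stayed soluble.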

Sequence	soluble fraction (log2)
HMKRITKKELKQAIVDVFADKPGQSFNYKQLATIIGIKDDPTRRMITDILYELVQEERIVELYRGKFKMEM	-0.335
HMKRLPFSFAKRFGVVVEDGEPPIVHHRDGASAETLLEVRRRLGQVFTLQRHDAEAFERLLTQAYQR	-0.837
HMKRPEPESPEAERRSQRAADWLVRRDRGLTAAEQDEFLQWLAIDPRHGEWFALHRSVVGEFSA	-1.12
HMKRQDFEFLVNLLRQNAGWDFDEEQYFVVDKKISNFIREKGYASVEDLIDELKVGAKPLISQVVESLAL	-2.01
HMKRTFGEISPLPSGRYRARYRGPDGERYPAPVTFLSRMDAETWLSAQARKVSSGDWTPPVGVVA	0.195
HMKRWHVGDPIDALTAAGKVPSWSTIRQRFWKTIAALYPDIEQSERLQRGLAMLDEAGTSIELHHP	-0.615
HMKRYLFEEVLAFLKHNDGKSFNYKQLGAAMEIDNESDRFALLETLEELKHQGFVIETDIGKYAAKE	-0.322
HMKSDELTKRRRLQIIEAAERSFRKRGFHATTLREIAAEFGMSVGHIYNYFSGKDAILEALIHQKIDD	-0.429
HMKSKHENLIDGLLKMISSMKPHDRLTPERQLAEEWAVSRMTLRRALEVLQFQGKIYTVPSSGLFVAEPK	-0.677
HMKSKPRVPFGSLVEMGILKPGSILFDPKGKIKTKVMVDGSIKYKETEGSIHKVAAQIMGTESYNGWTYW	-0.0629
HMKSLDDVISKFRPTGSENKIDFRKRVISEIHAQGFFKIKGSVNHVAKALGVTRYTVYNYLDKLND	≥ 0.43
HMKSLLTHAEEFVRNNNGRWMLAETSSKESYSSKQNFYLRNNYSIISEIRDFYSVGDNLLVFGKFFT	-0.242
HMKSNESAELGERMLNKALLALHTDSSKISDTQWQKLLRDYGAKNKQEILTDIGLGKRLNVMVAHQLMAMG	0.0391
HMKSNIGENIRQLREKREMSVERVARMLEVKPATVIGWESGRELPEPAELGLLAKLFDVTVEELN	-0.0738
HMKSNKEKIYDFIQMHDTAEKEGGVSTTYIAQALSLQRTNVSSLLNALVEEGRIHKSNGRPVLYSIAG	0.178
HMKSPAQAAALKKLWAAIKQNEQGEVVEVLFHNRKLTDAGLVHLKGLANLQTLNLYDTKITGAGLVHL	-0.0712
HMKSVLDDVAGLGPVRKKALLKAMGGFTRLRAASLDDILAVRAVPEEVAREVFAVLAQYNSVRNNDISE	≥ 0.43
HMKSVTAPLPGTVTQILVKVGDAVKAGDTVLMLEAMKMENSITAEAAGTVKAIRVEKGAQVQGGDVLIEM	-0.594
HMKTAAKVLGESGGKPVTVQSGRYGPYVQLGTIRATLPKDLDQEAVTLDKALELIDAKAERSGK	-0.0034
HMKTDFEIDITVKASSLRVVASPGGDELVGTVTRGDRVTQLATPKDGWILIKMTDGRLGYVPESLLLFP	-0.89
HMKTEIGQAMRKLRKAKKMTQDTLAEKLGVAPANISRYEKGQQGIEVDKLPTLADALGVSVPEFFAIASG	-0.142
HMKTELAYDFHSRIRDARIREGLSQVDLAKRMNEKIAVIQKAENGIRPTDSLIAKFSKALSVELYVE	-0.604
HMKTGIIYGVNGPVIYLKGDTGFKISEMVYVGPEKLVGEVIGLKKHMTTVQVFEETTGLKPGETVIGTGDA	-0.0122

Sequence	soluble fraction (log2)
HMKTGTVQDFIAKYGMSSKSPSSWFNSLTQIQKAEAKALKAQSGLTWNEWYEKNIYNGDGSNL	-0.119
HMKTKHISIAEGMSLYTRDRSPFYWGYLNIEGVIHKKSLKTDVVDEAIKLLSIWKNELLNSITK	-0.414
HMKTKKYKGVYKDSKGKIYFQIELGVDPITGKRIQKKGRKNQQGLPFNSFKEAYEEILRLKHEFVNSTIN	0.00285
HMKTKTAPPDSIPPAWLKESATLRPDLNQAQIKASAEVFLDHHRAKGTTLADWRPAWRNWIRRERA	0.0552
HMKTLDAFFDQARDAYKKLKKDGDIDNLKVLRNQLQTVRETQGDAVRKKSKEEYRRLVDIIDDIDGLLAAF	-0.154
HMKTLSKEDIGFLSDEAVGEMRKAVANGEMLELRALIDQVGEKNPIVAEKLLTLVKQYDYENLNRVLE	-0.802
HMKTPAPRETILSLFRQTPDGFVSGERISDELGVSRTAVWKHIRNLRQAGYQIEAIPSRGYQLQQS	-0.0693
HMKTQFGTIVKQLRERKGMDQKQLGEIVGVSDKTVSSWEINRTEPKMGIVQQLADYFGVSTDYLIKG	0.00995
HMKTRQVTVRNGRIEIFDKRFSTERLVFTAANLPVLEREGEVFTAGIPDSRDFINLWARDGSFAGSVPRV	-1.51
HMKTTSYAKLLRFLRTERDLSQITVAKQLGLSRASYLALEHGSRELSLSEAVKVTTLYGIRIDDLIVNH	-0.899
HMKTTVEVSPIARPGAVASGSVKFGSGVTAEWMLDQYGRLGLDKPTGKPTEQDIKEFQIELQKAL	0.122
HMKVDLSEEEKTILELLKKESPQELETIKAASTLSNKKWDKAIKGLRKHNLAKVNKTDDGLFVELE	0.105
HMKVDRLISIVLVLLDKNRISAQELADMFEVSLRTIYRDIDAIELAGIPIRSTSGVGGGFEIMPNY	-1.19
HMKVKGVYQLDNGYWGYRFTMLVNGKTVSQRRVKDESGNPFKTEKKAEKARLVAMAEEQTKANK	0.125
HMKVMTNAELGRIIKEARIARRMTQSEVVGDFITRNMLSQIENGNAAPSMRTLQYLMDVLDIHINIE	-0.751
HMKVNIGDQVYNQMKDQIMSGVWVPGEKIPSENQLMEVFGVSRGTVRQAIQKLSAVGLLETRRGEGSYVGQ	-0.0128
HMKVQLGMNTREVRGIMGKPFSEDTFVEGEKRVDVLHYKEAVRVKTQGFILTTSLRFENDSLTAI	-1.02
HMKVRVFIERSNDGYSAYMPDDNNLPFGLTGDGKTAQEAMQDFLLARDEMKEFFIEEGKEFPEVEFDFS	-1.49
HMKVSAEEQNILDALQAAGGYLPFHDKSNPEEIYEAFGISKKTFKMIIGSLYKQQKINLTQTGIQLII	-0.637
HMKVSDPEAIKLIEQAQVKVIPFLDISEAADIQIALEELKNSEGTGQTDSAKVRLRNLLSPFSYL	-1.12
HMKVSFEIEINGVTKSINSINEAKEAISELQDIMDNSTFGSEEFKNAATQIDKLQNKLVEALDK	-1.4
HMKVSVDLSMFEDDQTADRNAAVAWVVDELGAGGVDRTILMQLQSTGWSAEQSRAILDLASAGR	-0.324
HMKVTGSVQKKKGYYYIVVRLPTKNGTQYEQKQKWFNTKLKATPRNKTAAQVILAEKLTEYGGIV	≥ 0.43

Sequence	soluble fraction (log2)
HMKVWYAGINAQRVGPMTLGAMEQQIRYGRVLFSTLIWKSPMPQWVPAGDVPELRRLLDEHMLNQMP	-0.676
HMKYFDRDLINYIQKTLAGKKIDFHEKIVPLIIELAGSDIRRVDEIIDMAEYSGKGMHVSEEMIRELAGDV	-1.72
HMKYKTKRDMILALMKKEILSGELKPRTRLLISEVASRYEVSEIPVREAFQVLIQEDLVRSTGAGFEVT	0.233
HMKYPVYLQLADLIERKINKNEYPLGSKIPSERELIDAFGISRMTVRKAIEVLIEKGLLTRQHGKGTYVSQ	0.182
HMKYSNDFDKVSYSLGLSIASNLISSGVKTLNAEAFNDGLATVFEGRMPEINPDEANKILQNFFEGLQKE	-0.632
HMKYSQAMIAQIIKHFHLPNNTVVTGEDVDAILLRSVDGGDGIYGGDVVSIWKYYKKQNDIQEIVT	-0.764
HMLAEEDRRRAERPGLDGNAVMVHLGIGPGRHVGEALAFLLEVRRSEGDLAVAELKSRIDAWWADR	-1.49
HMLAERKERDKAELKELILDAAKKILLKNGQEGLSIRKIATTVEYSPATIYLYFKDKDEILHELMEMG	0.151
HMLAHSEFGARLRETRKRLGLSQSELGGDRYSGSYISHLESGRRAASAEVIEFLAGRLGVEVEELGM	-1.2
HMLAIELDDKPGSLLRALEIFAKRNLNIEYMYAFTEKRGDKAVMIFKFSDIETAKKSLLEEGFN	-1.13
HMLAKNDSGLNNHTFNAIRDALLEALADGPAEAKKLTENISFPSDKIITVIRFLADHDDRFSLEDGILSLT	-0.846
HMLAKYEIIKQDIIQMIEEKKFKPGDKIYSEGELKKIYNVSSTTVVRALQDLVLSGYLIRKQGEGTYVRK	0.222
HMLASDYEEELSVLIKMSHKIAAGDDSLMDDFNDRVTMFESSYPINKATKDLTPVLERVNKFQT	-0.295
HMLDDDAGMIQAILRKAPGHYLPLHDKSDPASIQAQLGISKAQFKRAVGTLMKQGLIRQVKGDGLYLTQ	0.125
HMLDDESLHFFYKKDGWEYWMKTTTENNYPIQLRKKIGDEKVQEYWNGDKEKKKIGASYFGV	-0.6
HMLDFLVSKYESELLADLLWSLGVVAVEEREATGDLVTLRTSLGDDHSFTRELVQEKFPDVIVSTAL	-2.23
HMLDIVVGSTGYALGEITDHSGTVRVNGDTWTARLVDAAGPVEDGDRVEVYAVEGTTLLVYPS	0.128
HMLDKEDNANAGKTLLERELSRAHLSDVEHRELAQRLHLASEQELYIKIGSGDLSIIQALNRAKEFKDT	-0.8
HMLDKRSHAKKVLDAIEAVILGRATNDQLAYTINGRSLQKTPLPDLLRLRSQYQAEYQRELRAERIRKG	≥ 0.43
HMLDLPVKTINGKQYYYYTVKKGDTVYSLITRFGITRSDLVESNPAAADVLKTGDTLYFAVDKFG	0.0813
HMLDLYYDSEDKLLIDMGTGEVIRSFADDKRSLVFDAQAKILFDEDSGDIVYSSYFDKLITDKLASKS	-1.51
HMLDPIQEGKKMLNSRLSGFGITPNTRLMNKLLAAYNISSREEFYGRIGAGIEDLSTLREVLLKGT	-0.182
HMLDQSYYETANEIISRYPLEEKSLIPIIQDIQATYRYLPPDLLDYVAKKIGITETKAYSVASFYENFSF	-1.09
